Results taken from FireProtDB (doi:10.1002/pro.381).

Conditions: Kitasatospora aureofaciens, pH 7, CD, MOPS 30 mM, whole UniProt chain shown; for denaturant m value / denaturant midpoint (higher = more stable) / unfolding free energy: 25 °C

B1: Guanyl-specific ribonuclease Sa wild type, P05798 (protein)
chain: DVSGTVCLSALPPEATDTLNLIASDGPFPYSQDGVVFQNRESVLPTQSYGYYHEYTVITPGARTRGTRRIITGEATQEDYYTGDHYATFSLIDQTC
GdnHCl
  denaturant m value: 2.43 kcal/mol/M
  denaturant midpoint (higher = more stable): 2.99 M
  unfolding free energy: 7.3 kcal/mol
Urea
  denaturant m value: 0.96 kcal/mol/M
  denaturant midpoint (higher = more stable): 6.06 M
  unfolding free energy: 5.8 kcal/mol
Thermal
  Tm: 49.3 °C
  heat capacity change of unfolding: 1.52 kcal/mol/K
  unfolding enthalpy (van 't Hoff): 93 kcal/mol
